The test has as its target T1, Recombinant human VEGF R2 (R&D Systems, #357-KD) (human, UniProt P35968 20-764).
T1 construct: Immobilized by amine coupling on a CM5 chip (approx. 9,500 RU)
The test is described as follows: SPR (BIAcore T200): VEGF-A-121 (10 nM, pre-incubated with COMP-anti-VEGF-Fab) injected over amine-coupled VEGF R2. Here is the method: Binding was investigated by surface plasmon resonance using a BIAcore T200 instrument (GE Healthcare). All experiments were performed at 25° C. using HBS-P (10 mM HEPES, 140 mM NaCl, 0.05% PS20, pH 7.4) as running and dilution buffer. Recombinant human VEGF R2 (R&D Systems, #357-KD) was immobilized on a Series S CM5 Sensor Chip (GE Healthcare) using standard amine coupling chemistry resulting a surface density of approx. 9,500 RU. […] Subsequently the surface was regenerated by injecting 10 mM Glycine solution (pH 2.0) for 60 sec., followed by 5 mM NaOH for 60 sec. at a flow rate of 5 μl/min. Bulk refractive index differences were corrected by subtracting the response obtained from a mock surface. Blank injections were subtracted (double referencing). The derived binding signals (resonance units RU) were plotted against the antibody concentrations to calculate IC₅₀ values.
In general terms: In SPR one partner is held on a chip, and binding of the other changes the refractive index at the surface.

T1 sequence (P35968 20-764 limits assumed): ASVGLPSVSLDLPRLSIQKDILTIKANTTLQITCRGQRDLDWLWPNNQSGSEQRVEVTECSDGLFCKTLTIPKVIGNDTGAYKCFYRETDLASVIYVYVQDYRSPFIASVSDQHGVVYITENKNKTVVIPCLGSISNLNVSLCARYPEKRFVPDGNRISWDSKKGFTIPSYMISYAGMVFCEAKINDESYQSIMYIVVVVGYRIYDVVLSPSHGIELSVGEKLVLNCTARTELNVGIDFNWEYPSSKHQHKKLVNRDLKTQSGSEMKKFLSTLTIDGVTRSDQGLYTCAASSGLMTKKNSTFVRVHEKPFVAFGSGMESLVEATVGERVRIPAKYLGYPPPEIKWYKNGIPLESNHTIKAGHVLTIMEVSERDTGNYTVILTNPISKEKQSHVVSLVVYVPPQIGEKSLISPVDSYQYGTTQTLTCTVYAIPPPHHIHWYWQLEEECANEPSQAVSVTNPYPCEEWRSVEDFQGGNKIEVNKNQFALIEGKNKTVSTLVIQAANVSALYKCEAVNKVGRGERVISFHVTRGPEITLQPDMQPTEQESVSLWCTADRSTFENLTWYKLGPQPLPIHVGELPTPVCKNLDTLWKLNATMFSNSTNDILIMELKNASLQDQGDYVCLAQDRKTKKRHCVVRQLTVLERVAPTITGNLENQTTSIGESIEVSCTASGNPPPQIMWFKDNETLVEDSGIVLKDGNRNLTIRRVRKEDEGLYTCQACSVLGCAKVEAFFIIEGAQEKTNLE

B1: VEGF-A-121 (ligand, UniProt P15692-9 27-147, looked up)
chain: APMAEGGGQNHHEVVKFMDVYQRSYCHPIETLVDIFQEYPDEIEYIFKPSCVPLMRCGGCCNDEGLECVPTEESNITMQIMRIKPHQGQHIGEMSFLQHNKCECRPKKDRARQEKCDKPRR
notes: Used at 10 nM in solution, pre-incubated with the antibody molecules
With B1, the binding result was “binds”.

Values taken from patent publication US20200399341A1 (Hoffmann-La Roche, published 2020).
